Measurements: patent publication US10533038B2, “Methods of reducing TDP-43-mediated neuronal cytotoxicity in amyotrophic lateral sclerosis by a UPF1 polypeptide or polynucleotide” (Brandeis University, priority 2012, dated 2020)
“Also recorded” adds a separate entry of the source.

Experiments:
ALS patients = details: some ALS patients; cited from earlier work
wild type neurons = experiment: Kaplan-Meyer survival of wild type motor neurons expressing UPF1; assay type: cell-based, mice or human; details: UPF1 expression in motor neurons; FIG. 1A
Description: (§1) To test the efficacy of UPF1 in reducing TDP-43 or FUS-mediated cytotoxicity in neurons, UPF1 was expressed in motor neurons expressing disease-associated FUS or TDP-43. Motor neurons were either isolated from mice or created from fibroblasts taken from human ALS patients using iPS cell techniques (described in Yamanaka et al., Cell 126:663-676 (2006)). FUS or TDP-43 were tagged with EGFP (Enhanced Green Fluorescent Protein) and expressed in motor neurons, which were visualized by fluorescent microscopy using mApple.
(§2) The motor neurons died within a few days of FUS or TDP-43 expression due to toxicity of these ALS-related proteins. UPF1 was expressed in the motor neurons and Kaplan-Meyer survival curves were determined.

[1] = test system: motor neurons expressing TDP-43; experiment: Kaplan-Meyer survival of motor neurons expressing disease-associated TDP-43 and UPF1; assay type: cell-based, mice or human; details: UPF1 expressed in motor neurons expressing EGFP-tagged TDP-43; FIG. 1B
Description: as §1, §2

[2] = test system: motor neurons expressing FUS; experiment: Survival of motor neurons expressing disease-associated FUS and UPF1; assay type: cell-based, mice or human; details: UPF1 expressed in cells expressing FUS; data not shown
Description: as §1, §2

[3] = test system: ALS-associated mutants of SOD1; experiment: Rescue of toxicity of ALS-associated mutants of SOD1 by UPF1 expression; assay type: cell-based
[4] = test system: ALS-associated TDP-43 mutations in yeast; experiment: Yeast model of ALS: suppression of cytotoxicity of TDP-43 mutations; assay type: cell-based
FUS/TLS = experiment: Cytoplasmic level of FUS/TLS in neuronal cells expressing UPF1; assay type: cell-based; details: expression of UPF1
Description: (§3) The present invention encompasses the surprising finding that NMD agents are useful, among other things, in the treatment or prevention (i.e., delay of onset) of ALS. […] Accordingly, in some embodiments, an NMD agent is provided to the central nervous system of a subject, e.g., a subject suffering from or susceptible to ALS. In some embodiments, an NMD agent is provided to one or more of target cells or tissues of brain, spinal cord, and/or peripheral organs. In some embodiments, target cells or tissues include those cells or tissues that display a disease-associated pathology, symptom, or feature. In some embodiments, target cells or tissues include those cells or tissues in which TDP-43 or FUS/TLS is expressed at an elevated level, e.g., cells in which TDP-43 or FUS/TLS is expressed at an elevated level in the cytoplasm of the cells. As used herein, a target tissue may be a brain target tissue, a spinal cord target tissue and/or a peripheral target tissue.

TDP-43 = experiment: Cytoplasmic level of TDP-43 in neuronal cells expressing UPF1; assay type: cell-based; details: expression of UPF1
Description: as §3

[5] = test system: FUS/TLS toxicity in yeast; details: yeast model of ALS; Ju et al., PLoS Biol. 2011; cited from earlier work

Molecule	extension of lifespan of ALS patients (ALS patients)	effect on survival of wild type neurons (wild type neurons)	toxicity of TDP-43 in motor neurons [1]	toxicity of FUS in motor neurons [2]	rescue of toxicity of ALS-associated mutants of SOD1 [3]	cytotoxicity of ALS-associated TDP-43 mutations in yeast [4]	cytoplasmic levels of FUS/TLS in the neuronal cells (FUS/TLS)	cytoplasmic levels of TDP-43 in the neuronal cells (TDP-43)	toxicity of FUS/TLS in yeast [5]
Nc1nc2ccc(OC(F)(F)F)cc2s1 [riluzole]	about 3 months								
UPF1: protein involved in nonsense-mediated mRNA decay (NMD), expressed in neurons; amino acid sequence SEQ ID NO: 2 (protein, listed as Homo sapiens) MSVEAYGPSSQTLTFLDTEEAELLGADTQGSEFEFTDFTLPSQTQTPPGGPGGPGGGGAGSPGGAGAGAAAGQLDAQVGPEGILQNGAVDDSVAKTSQLLAELNFEEDEEDTYYTKDLPIHACSYCGIHDPACVVYCNTSKKWFCNGRGNTSGSHIVNHLVRAKCKEVTLHKDGPLGETVLECYNCGCRNVFLLGFIPAKADSVVVLLCRQPCASQSSLKDINWDSSQWQPLIQDRCFLSWLVKIPSEQEQLRARQITAQQINKLEELWKENPSATLEDLEKPGVDEEPQHVLLRYEDAYQYQNIFGPLVKLEADYDKKLKESQTQDNITVRWDLGLNKKRIAYFTLPKTDSDMRLMQGDEICLRYKGDLAPLWKGIGHVIKVPDNYGDEIAIELRSSVGAPVEVTHNFQVDFVWKSTSFDRMQSALKTFAVDETSVSGYIYHKLLGHEVEDVITKCQLPKRFTAQGLPDLNHSQVYAVKTVLQRPLSLIQGPPGTGKTVTSATIVYHLARQGNGPVLVCAPSNIAVDQLTEKIHQTGLKVVRLCAKSREAIDSPVSFLALHNQIRNMDSMPELQKLQQLKDETGELSSADEKRYRALKRTAERELLMNADVICCTCVGAGDPRLAKMQFRSILIDESTQATEPECMVPVVLGAKQLILVGDHCQLGPVVMCKKAAKAGLSQSLFERLVVLGIRPIRLQVQYRMHPALSAFPSNIFYEGSLQNGVTAADRVKKGFDFQWPQPDKPMFFYVTQGQEEIASSGTSYLNRTEAANVEKITTKLLKAGAKPDQIGIITPYEGQRSYLVQYMQFSGSLHTKLYQEVEIASVDAFQGREKDFIILSCVRANEHQGIGFLNDPRRLNVALTRARYGVIIVGNPKALSKQPLWNHLLNYYKEQKVLVEGPLNNLRESLMQFSKPRKLVNTINPGARFMTTAMYDAREAIIPGSVYDRSSQGRPSSMYFQTHDQIGMISAGPSHVAAMNIPIPFNLVMPPMPPPGYFGQANGPAAGRGTPKGKTGRGGRQKNRFGLPGPSQTNLPNSQASQDVASQPFSQGALTQGYISMSQPSQMSQPGLSQPELSQDSYLGDEFKSQIDVALSQDSTYQGERAYQHGGVTGLSQY		no effect	reduces cellular toxicity; also recorded: completely eliminate the toxicity of TDP-43 in a dose-dependent manner	reduces cellular toxicity	unable to rescue	able to suppress the cytotoxicity	no effect	no effect	able to rescue toxicity; also recorded: suppressed toxicity
